Results reported in PMC4636328, “Two Polyhydroxyalkanoate Synthases from Distinct Classes from the Aromatic Degrader Cupriavidus pinatubonensis JMP134 Exhibit the Same Substrate Preference” (PLoS ONE, 2015).

B1: PhaC2 (Cupriavidus pinatubonensis JMP134) (protein)
chain: MTTAVGTRTLAKTTKKAKKPAASAVAPEAIVDSAPAMTGPNPFVGLRPEDMVSTAQQIGAQCVQEPTLLLQQQTKLAQDLFAVVDGSAPPPCTRDRRFGDPAWQDNPVYRMALQGYQAWRDALTGFVTGSVMDGRSKERAQYFTDLLIDAVAPTNTLLGNPAALRKTFESGGLNLVSGLVNLLTDTLTNQGMPSQVDKSAFRIGKDLAATPGAVVFRNDVLELIQYTPTTANVHARPQLIVPPQVNKFYVFDLSQGKSMVEYLVRNEMQVFMVSWRNPTTLHRDWNLDTYVGALIEAIHAIRDITGSPDVNLHGACSGAMTMSALMGYCAARGEKLVNAATLMVSVFGLDSQSQLGLFATPEAIDAARQGSQARGVLDGGELGRVFAWMRPNDLVWNYWVNNYLLGKAPPAFDILYWNNDTTRLPAGLHGQLLDMLTLNQLSTPGALRVLGQPIDLSAVDCDKYVLAGMTDHITPWKGVYRSVRAFGGKTEFVLSSSGHVQSLINPPGNAKAKFFLNDAQMADPEAWLEGATVTPSSWWEHWSEWLKTRSGPLNAAPSRLGSDRHAPCADAPGRYVTEA
notes: full length (579 residues), C-terminal His6 tag, pET28a, E. coli BL21(DE3), Ni-NTA purified, about 65 kDa
B2: PhaC1Pa (Pseudomonas aeruginosa PAO1) (protein)
chain: MSQKNNNELPKQAAENTLNLNPVIGIRGKDLLTSARMVLLQAVRQPLHSARHVAHFSLELKNVLLGQSELRPGDDDRRFSDPAWSQNPLYKRYMQTYLAWRKELHSWISHSDLSPQDISRGQFVINLLTEAMSPTNSLSNPAAVKRFFETGGKSLLDGLGHLAKDLVNNGGMPSQVDMDAFEVGKNLATTEGAVVFRNDVLELIQYRPITESVHERPLLVVPPQINKFYVFDLSPDKSLARFCLRNGVQTFIVSWRNPTKSQREWGLTTYIEALKEAIEVVLSITGSKDLNLLGACSGGITTATLVGHYVASGEKKVNAFTQLVSVLDFELNTQVALFADEKTLEAAKRRSYQSGVLEGKDMAKVFAWMRPNDLIWNYWVNNYLLGNQPPAFDILYWNNDTTRLPAALHGEFVELFKSNPLNRPGALEVSGTPIDLKQVTCDFYCVAGLNDHITPWESCYKSARLLGGKCEFILSNSGHIQSILNPPGNPKARFMTNPELPAEPKAWLEQAGKHADSWWLHWQQWLAERSGKTRKAPASLGNKTYPAGEAAPGTYVHER
notes: full length, C-terminal His6 tag, pET28a, E. coli BL21(DE3), Ni-NTA purified
B3: PhaC1 (Cupriavidus pinatubonensis JMP134) (protein)
chain: MATGKGAAASSTEGKSQPFKFPPGPLDPATWLEWSRQWQGPEGNGGTVPGGFPGFEAFAASPLAGVKIDPAQLAEIQQRYMRDFTELWRGLAGGDTESAGKLHDRRFASEAWHKNAPYRYTAAFYLLNARALTELADAVEADPKTRQRIRFAVSQWVDAMSPANFLATNPDAQNRLIESRGESLRAGMRNMLEDLTRGKISQTDETAFEVGRNMAVTEGAVVFENEFFQLLQYKPLTDKVYTRPLLLVPPCINKFYILDLQPEGSLVRYAVEQGHTVFLVSWRNPDASMAGCTWDDYIENAAIRAIEVVRDISGQDKINTLGFCVGGTIISTALAVLAARGEHPVASLTLLTTLLDFTDTGILDVFVDEPHVQLREATLGGASGGLLRGVELANTFSFLRPNDLVWNYVVDNYLKGNTPVPFDLLFWNGDATNLPGPWYCWYLRHTYLQNELKEPGKLTVCNEPVDLGAINVPTYIYGSREDHIVPWTAAYASTALLKNDLRFVLGASGHIAGVINPPAKKKRSHWTNDALPESAQDWLAGAEEHHGSWWPDWMTWLGKQAGAKRAAPTEYGSKRYAAIEPAPGRYVKAKA
notes: full length (591 residues), C-terminal His6 tag, pET28a, E. coli BL21(DE3), Ni-NTA purified, about 65 kDa

Assays:
[1] = substrate: C[C@@H](O)CC(=O)SCCNC(=O)CCNC(=O)[C@H](O)C(C)(C)COP(=O)(O)OP(=O)(O)OC[C@H]1O[C@@H](n2cnc3c(N)ncnc32)[C@H](O)[C@@H]1OP(=O)(O)O; assay: purified protein; assay type: biochemical, Cupriavidus pinatubonensis; details: 50 mM PBS, pH 7.5, 20 mM MgCl2, 0.5 mM DTNB, R/S substrate mixture, R isomer counted
[2] = substrate: CCCCC[C@@H](O)CC(=O)SCCNC(=O)CCNC(=O)[C@H](O)C(C)(C)COP(=O)(O)OP(=O)(O)OC[C@H]1O[C@@H](n2cnc3c(N)ncnc32)[C@H](O)[C@@H]1OP(=O)(O)O; assay: purified protein; assay type: biochemical, Pseudomonas aeruginosa; details: 50 mM PBS, pH 7.5, 20 mM MgCl2, 0.5 mM DTNB, R/S substrate mixture, R isomer counted

| Protein | Km [1] [µM] | Vmax [1] [µM/min] | kcat [1] [s⁻¹] | kcat/Km [1] [M⁻¹ s⁻¹] | Km [2] [µM] | Vmax [2] [µM/min] | kcat [2] [s⁻¹] | kcat/Km [2] [M⁻¹ s⁻¹] |
| --- | --- | --- | --- | --- | --- | --- | --- | --- |
| B1 | 115.93 ± 9.15 | 1.74 | 0.0625 ± 0.000333 | 533 ± 33.3 |  |  |  |  |
| B2 |  |  |  |  | 67.28 ± 12.86 | 39 | 0.94 ± 0.0883 | 13800 ± 4170 |
| B3 | 45.46 ± 6.02 | 38.3 | 0.664 ± 0.0352 | 14700 ± 3170 |  |  |  |  |
